We go through seven molecules from PMC7954794, “Protein context shapes the specificity of SH3 domain-mediated interactions in vivo” (Nature Communications, 2021).

Holding throughout (assay type): cell-based, Saccharomyces cerevisiae
The test system of assay [1] is SH3-deleted bait proteins (1xFLAG). The experiment in a line: Western blot expression level of SH3-deleted baits (Fig. S1F-G). As to conditions: Western blot Flag signal, 1xFLAG-tagged WT or SH3-deleted bait; sheet FigS1F-G. As for the experimental part: Precultures of yeast cells expressing baits fused with the DHFR F[1,2]-FLAG were grown overnight at 30 °C with agitation in synthetic complete medium. The next day, cells were expanded in synthetic complete medium to reach their exponential phase (OD600 of around 1.0), pelleted, and frozen at −80 °C. The equivalent of fifty OD600 of cells was resuspended in ice-cold yeast lysis buffer (10 mM Tris-HCl pH 7.4, 150 mM NaCl, 0.5 mM EDTA (Millipore Sigma), 1% Triton X-100 (Millipore Sigma), and one cOmplete Mini Protease Inhibitor Cocktail (Millipore Sigma) per 10 mL) with […] glass beads (Millipore Sigma) and disrupted at 4 °C by 10 cycles of 2 min vortexing and 2 min cooldown. The equivalent of […] of lysed cells was used for the immunoprecipitation of the bait proteins using FLAG-M2 agarose beads (Millipore Sigma). The beads were incubated with the cell lysates for 120 min at 4 °C with a slow rotation, followed by three washes with the yeast lysis buffer.
Protein extracts and affinity-purified baits from yeast and human lysed cells were migrated on 10% polyacrylamide gels. The separated proteins were then transferred to nitrocellulose membranes. Validation of correct protein loading was done with ponceau staining of the membranes. Before the primary antibody incubations, membranes were blocked in 5% milk. Protein signals were detected on an Amersham Imager 600RGB (GE Healthcare) following the incubation of the membranes with the appropriate HRP-conjugated secondary antibodies and the Clarity Western ECL Substrate (Bio-Rad). The antibodies used in this study are M2-HRP (A8592, Sigma, 1/50,000), rabbit anti-FLAG (F7425, Sigma, 1/1000), PAK (SC-881, Santa Cruz, 1/200), p130cas/BCAR1 (SC-860, Santa Cruz, 1/200), actin (Cell Signaling Technology, 1/2000), anti-mouse HRP (Cell Signaling Technology, 1/10,000) and anti-rabbit HRP (Cell Signaling Technology, 1/10,000). The quantification of the WB signals was performed with the Amersham Imager 600 analysis software (GE Healthcare).
(Immunoblotting shows a protein as a band on a membrane.)

In assay [2] the test system is 575 putative partners (preys) of 22 WT SH3-containing proteins. The experiment in a line: DHFR-PCA on solid medium, WT and SH3-deleted baits (Fig. 1B). Also on record: key to Score: 0: SH3-independent; 1: SH3-dependent PPIs; 2: SH3-inhibited PPIs. In a few lines:
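In S. cerevisiae, 22 SH3-containing baits fused genomically to DHFR F[1,2], either WT or with each SH3 replaced via CRISPR by a poly-Gly/Ser linker, screened against 575 DHFR F[3] preys plus 40 negative controls in 1536 arrays, preys duplicated at randomized positions.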

Another assay has as its system ABP1. The assay is described as follows: DHFR-PCA on solid medium, bait ABP1 (Fig. 1B). As to conditions: bait ABP1, label = prey; for medrep (log2 median colony size normalized to plate background, PCA score): 2-4 replicates; for Ratio (SH3-deleted/WT medrep): only significant differences showed, PPIs completely lost have a ratio of 0.1 and the gained PPIs 2.5. The text has this: (§1) Supplement 41467_2021_21873_MOESM8_ESM.xlsx, sheet "Fig1B" | column: medsize; medrep; Ratio; Score

In another assay the test system is BBC1. The experiment in a line: DHFR-PCA on solid medium, bait BBC1 (Fig. 1B). As to conditions: bait BBC1, label = prey; for medrep (log2 median colony size normalized to plate background, PCA score): 2-4 replicates.
Excerpt: as §1

In the next assay the test system is BUD14. The assay is described as follows: DHFR-PCA on solid medium, bait BUD14 (Fig. 1B). The following applies: bait BUD14, label = prey; 4 replicates.
Excerpt: as §1

The next assay relates to BEM1-1. The assay is described as follows: DHFR-PCA on solid medium, bait BEM1-1 (Fig. 1B). As to conditions: bait BEM1-1, label = prey; 2-8 replicates.
Excerpt: as §1

The next assay concerns BEM1-2. The assay is described as follows: DHFR-PCA on solid medium, bait BEM1-2 (Fig. 1B). The following applies: bait BEM1-2, label = prey; 2-8 replicates.
Excerpt: as §1

For another assay, the system named is BOI1. The assay is described as follows: DHFR-PCA on solid medium, bait BOI1 (Fig. 1B). As to conditions: bait BOI1, label = prey; 3-8 replicates.
Excerpt: as §1

The next assay concerns BOI2. The assay is described as follows: DHFR-PCA on solid medium, bait BOI2 (Fig. 1B). As to conditions: bait BOI2, label = prey; 3-8 replicates.
Excerpt: as §1

B1: Nbp2 WT (protein, UniProt Q12163 1-236, looked up)
NAP1-binding protein 2: MATMETTTQKDTNILKSGLKKTIGVLNEAVLQNGREVEAVQAGNSDTMEDTETTTIGYISIKDYAYADSNPLHYGYFDGDNEEDEMVSDSSNGEDTYNKRQSITLPDDYIVNQRAVALYDFEPENDNELRLAEGDIVFISYKHGQGWLVAENESGSKTGLVPEEFVSYIQPEDGENEVENKARPFYLTHLITQSVSPKNNIDNTNEDEYDDNDEWEDIDDVAEVEADMKTKLDISD
For the molecule B1, the Flag in [1] came out at 158710.

B2: YKL117W (protein, UniProt P28707 2-216, looked up)
Co-chaperone protein SBA1: SDKVINPQVAWAQRSSTTDPERNYVLITVSIADCDAPELTIKPSYIELKAQSKPHVGDENVHHYQLHIDLYKEIIPEKTMHKVANGQHYFLKLYKKDLESEYWPRLTKEKVKYPYIKTDFDKWVDEDEQDEVEAEGNDAAQGMDFSQMMGGAGGAGGAGGMDFSQMMGGAGGAGSPDMAQLQQLLAQSGGNLDMGDFKENDEEDEEEEIEPEVKA
With B2, the “medrep (log2 median colony size normalized to plate background, PCA score)” value is given as 4.6716 in assay [2] (bait SLA1-3, DHFR-PCA, label = prey, Replicates 4 (2 for YCR009C, YDR388W, YIL033C)); 3.786 with ABP1; 1.6151 in the assay on BBC1; 3.847 with BUD14. Also, the Score in assay [2] (bait SLA1-3, label = prey) is 0. Moreover, the “Ratio (SH3-deleted/WT medrep)” value in the assay on ABP1 came out at 1.319; in the assay on BBC1 (only significant differences showed, PPIs completely lost have a ratio of 0.1 and the gained PPIs 2.5), 0.1.

B3: Sho1 WT (protein, UniProt P40073 1-367, looked up)
High osmolarity signaling …: MSISSKIRPTPRKPSRMATDHSFKMKKFYADPFAISSISLAIVSWVIAIGGSISSASTNESFPRFTWWGIVYQFLIICSLMLFYCFDLVDHYRIFITTSIAVAFVYNTNSATNLVYADGPKKAAASAGVILLSIINLIWILYYGGDNASPTNRWIDSFSIKGIRPSPLENSLHRARRRGNRNTTPYQNNVYNDAIRDSGYATQFDGYPQQQPSHTNYVSSTALAGFENTQPNTSEAVNLHLNTLQQRINSASNAKETNDNSNNQTNTNIGNTFDTDFSNGNTETTMGDTLGLYSDIGDDNFIYKAKALYPYDADDDDAYEISFEQNEILQVSDIEGRWWKARRANGETGIIPSNYVQLIDGPEEMHR
B3: in assay [1], the Flag is 42239.

B4: Boi2 WT (protein, UniProt P39969 1-1040, looked up)
BEM1-interacting protein 2: MSNDREVPTLSQLNTTVSRDKDVSDTLSPDFDSKGSATGRDGGNFPMYIAINEYFKRMEDELDMKPGDKIKVITDDEEYKDGWYFGRNLRTNEEGLYPVVFTQKITVEKAPTLMRAKSTKRIYSPLTNEDPLLSSTFISENDSNSELPTPQPIETAASISRTANGKIERNLSLKNTMSDIDNALLEFKDDSIGPPDRFINSGRDEEHSITHETILSATDGLDVVESNSKPTTSSSTGFLNGDLENQATLINGIDTTKLNPVEAEFWSPEEITAYFIMEGYDVQSASRFQKHKISGKILLELELVHLKELDINSFGTRFEIFKEIEKIKEAIRTNGRSLNRASKTNNANIYNQLMPPANVDQRASYRGHVRKTSQSLEDLPSQQNFIPTPRNTRNSSASKHRPKSLVFDSQEANANIAPDVQIPQVVEEMAGNENLFVSPRRAPKPPSYPSPAQPPKSPLLNNTRTSPSPAQLYSWQSPTLSFSGPKRTSYIDQYSSSDSNFNSRSALPKNNQGGGKALSPIPSPTRNSVRNEDSEGKLTSSSKRNSVPYYGYAPESSSDRKSSCSSHEEEQFQETMNTFERPTSSIYADGSTIASISNDKLAHEKEGKKKPTRHSSSLSSKSKSDSRRNSSLKRSSSASRTSSFKKSSFMLSPFRQQFTDNAARSSSPEENPITSMPSEKNSSPIVDKKSSKKSRSKRRSVSAKEAEIFTETVKDDKNKRSASEAIKGETLKGKSLRQMTARPVAKKKQTSAFIEGLRSISVKEAMKDADFSGWMSKKGSGAMSTWKTRFFTLHGTRLSYFSSTTDTRERGLIDITAHRVVPAKEDDKLVSLYAASTGKGRYCFKLLPPQPGSKKGLTFTQPRTHYFAVDNKEEMRGWMAALIKTTIDIDTSVPIISSYTTPTVSLSKAQEMLAEAREETKLREQQMLENEEDEDQFLWDQQQLQQQQHDNNQGQADRTISASTQRTSDEDNTISTPNLSSANNTTIGSNGFSSPFLLASGLLSPGVARNSSMRGTEKKGKFSTEEDYFGDNSKHKTDKI
With B4, in [1], the Flag amounted to 12024.

B5: Myo5 WT (protein, UniProt Q04439 1-1219, looked up)
Myosin-5: MAILKRGARKKVHQEPAKRSANIKKATFDSSKKKEVGVSDLTLLSKISDEAINENLKKRFLNATIYTYIGHVLISVNPFRDLGIYTDAVMNEYKGKNRLEVPPHVFAIAESMYYNMKSYNENQCVIISGESGAGKTEAAKRIMQYIAAASSTHTESIGKIKDMVLATNPLLESFGCAKTLRNNNSSRHGKYLEIKFNNQFEPCAGNITNYLLEKQRVVSQIKNERNFHIFYQFTKGASDAYRQTFGVQKPEQYVYTAAAGCISAETIDDLQDYQETLKAMRVIGLGQEEQDQIFRMLAAILWIGNVSFIENEEGNAQVRDTSVTDFVAYLLQIDSQLLIKSLVERIMETNHGMKRGSVYHVPLNIVQADAVRDALAKAIYNNLFDWIVSRVNKSLQAFPGAEKSIGILDIYGFEIFEHNSFEQICINYVNEKLQQIFIQLTLKSEQETYEREKIQWTPIKYFDNKVVCDLIEARRPPGIFAAMNDSVATAHADSNAADQAFAQRLNLFTTNPHFDLRSNKFVIKHYAGDVTYDIDGITDKNKDQLQKDLVELIGTTTNTFLATIFPDTVDRESKRRPPTAGDKIIKSANDLVETLSKAQPSYIRTIKPNETKSPNDYDDRQVLHQIKYLGLQENVRIRRAGFAYRQVFEKFVERFYLLSPHCSYAGDYTWQGDTLDAVKYILQDSSIPQQEYQLGVTSVFIKTPETLFALEHMRDRYWHNMAARIQRAWRRFLQRRIDAATKIQRTIRERKEGNKYEKLRDYGTKVLGGRKERRSMSLLGYRAFMGDYLSCNESKSKGAYIKRQVSIKEKVIFSIHGEALHTKFGRSAQRLKKTFLLTPTTLYIVGQTLVQNAMTYTQDYKIDVRNIQAVSLTNLQDDWVAIKLASSGQPDPLINTYFKTELITHLKRLNDKIQIKIGSAIEYQKKPGKLHSVKCQINESAPKYGDIYKSSTISVRRGNPPNSQVHKKPRKKSSISSGYHASSSQATRRPVSIAAAQHVPTAPASRHSKKPAPPPPGMQNKAATRRSVPNPASTLTASQSNARPSPPTAATRATPAATPAAAAMGSGRQANIPPPPPPPPPSSKPKEPMFEAAYDFPGSGSPSELPLKKGDVIYITREEPSGWSLGKLLDGSKEGWVPTAYMKPHSGNNNIPTPPQNRDVPKPVLNSVQHDNTSANVIPAAAQASLGDGLANALAARANKMRLESDDEEANEDEEEDDW
In assay [1], B5 showed a Flag of 93590.

B6: YLR332W (protein, UniProt P36027 26-376, looked up)
Cell wall integrity sensor …: QFFVQSSSSNSSAVSTARSSVSRVSSSSSILSSSMVSSSSADSSSLTSSTSSRSLVSHTSSSTSIASISFTSFSFSSDSSTSSSSSASSDSSSSSSFSISSTSATSESSTSSTQTSTSSSSSLSSTPSSSSSPSTITSAPSTSSTPSTTAYNQGSTITSIINGKTILSNHYTTVTYTPSATADSSNKSKSSGLSKKNRNIVIGCVVGIGVPLILVILALIYMFCIQSSRTDFIDSDGKVVTAYRANKFTKWWYMLLGKKVSDEYHSDSPLGGSASSAGGLDLDEADDVMEQSSLFDVRIRDSDSVLPNANTADHNNTNSGGEPINSSVASNDIIEEKFYDEQGNELSPRNY
On to B6, for which the “medrep (log2 median colony size normalized to plate background, PCA score)” value with ABP1 came out at 3.345; with BBC1, 4.7031; in the assay on BEM1-1, 4.445; with BEM1-2 it was 4.445; in the assay on BOI1 it was 3.534; in the assay on BOI2, 4.169. In the assay on BUD14, the “medrep (log2 median colony size normalized to plate background, PCA score)” value turned out to be 1.439. Besides, the “Ratio (SH3-deleted/WT medrep)” value in the assay with ABP1 came to 1.326.

B7: Pin3 WT (protein, UniProt Q06449 2-215, looked up)
[PSI+] inducibility protein 3: SASLINRSLTNIRTELDFLKGSNVISNDVYDQINKSLPAKWDPANAPRNASPASLEYVEALYQFDPQQDGDLGLKPGDKVQLLEKLSPEWYKGSCNGRTGIFPANYVKPAFSGSNGPSNLPPPPQYKAQELQQIPTQNSAASSYQQQPFPPPSTNYYQQPQQQPQQAPPPQQQQQQQQHQSSHSHLKSFGSKLGNAAIFGAGASIGSDIVNNIF
B7 showed a Flag in assay [1] of 304553.
